Literature values as cited in publication PMC3050594.
pKd: −log10 of the molar value. Read-outs that look alike come from different tables or passages of the source.

Assays:
[1] = molecular target: RSV F glycoprotein (Human respiratory syncytial virus) (UniProt P03420)
[2] = molecular target: RSV F glycoprotein (Human respiratory syncytial virus) (UniProt P03420); remark: listed apart in the source

Q: With palivizumab as the substance, how does the pKd [1] read?
A: Its pKd is 8.85.

Q: With motavizumab as the substance, how does the pKd [2] read?
A: Its pKd is 10.46.
